From patent publication US20250282890A1 (TECHNISCHE UNIVERSIT T M NCHEN, published 2025)
Residue numbers refer to the chain shown, from its start.

B1: 6-5D3-hFab (Fab, V domains shown)
VH: EVQLVESGGGLVQPGGSLRLSCAASGYAFNTSWMNWVRQAPGKGLEWISRIYPGDGDTNYNGKFKGKATISADKSKNTLYLQMNSLRAEDTAVYYCARGEWYLYYFDYWGQGTLVTVSS
VL: DIQMTQSPSSLSASVGDRVTITCSASQGINNFLTWYQQKPGKALKLLIYYTSSLHSGVPSRFSGSGSGTDYTLTISSLQPEDFATYYCQQYSNLPFTFGQGTKVEIK
notes: Humanized Fab with a TwinStrep tag at the C-terminus of the CH1 constant domain; also called version 6 of 5D3-Fab; antibody 6 (Fab format)
B2: 2-5D3-hFab (Fab, V domains shown)
VH: QVQLVQSGAEVKKPGASVKVSCKASGYAFNTSWMNWVRQAPGQGLEYIGRIYPGDGDTNYNGKFKGKATMTADKSISTVYMEVRRLRSDDTAVYYCARGEWYLYYFDYWGQGTLVTVSS
VL: B1 VL with Q38H, K39E, S77T, Q100G
notes: Humanized Fab with a TwinStrep tag at the C-terminus of the CH1 constant domain; also called version 2 of 5D3-Fab; antibody 2
B3: 5-5D3-hFab (Fab, V domains shown)
VH: B2 VH with A9P, K19R, V20L, Y47W, I76T, S77N, V79A, V83L, R85S, A97G
VL: B1 VL with L11V, T22S, P40L, K45Q, Q100P, E105D
notes: Humanized Fab with a TwinStrep tag at the C-terminus of the CH1 constant domain; also called version 5 of 5D3-Fab; antibody 5

target: T1, human PSMA displayed on the surface of LNCaP cells (human, UniProt Q04609 1-750); test: flow cytometry titration on cells (three-fold dilution series, anti-Strep antibody and goat anti-mouse Alexa Fluor 647); the sheet does not name the cell line, the text gives the curves as binding to cell-surface PSMA (LNCaP)
T1 construct: Endogenous PSMA on living LNCaP cells; also called PSMA-positive LNCaP cells
Experimental: FIG. 5—Affinity of Fab variants determined by flow cytometry. LNCaP (PSMA-positive) and DU145 (PSMA-negative) cell lines were probed with three-fold dilution series of tested Fab variants and bound antibodies visualized by the combination of anti-Strep and goat anti-mouse Alexa-Fluor647 antibodies. Cell samples were analyzed using a LSRFortessa flow cytometer and binding curves were fitted using a non-linear regression algorithm.
(§1) Flow cytometry was used to analyze affinity and specificity of 5D3-hFabs for PSMA in its physiological environment, i.e., at the surface of living cells. To this end, LNCaP and DU145 cells were used as representatives of PSMA-positive and PSMA-negative cell lines, respectively, in a protocol described previously (Novakova, Belousova et al. (2020), Int. J. Mol. Sci., 21(18):6672). Briefly, cells were treated by three-fold dilution series of 5D3-hFabs in the concentration range 6000 nM-0.42 pM. Bound 5D3-hFabs were detected by the combination of anti-Strep tag antibody and goat anti-mouse secondary antibody conjugated to Alexa Fluor 647. Cell samples were immediately analyzed using a LSRFortessa flow cytometer.

T1 sequence (Q04609 whole entry): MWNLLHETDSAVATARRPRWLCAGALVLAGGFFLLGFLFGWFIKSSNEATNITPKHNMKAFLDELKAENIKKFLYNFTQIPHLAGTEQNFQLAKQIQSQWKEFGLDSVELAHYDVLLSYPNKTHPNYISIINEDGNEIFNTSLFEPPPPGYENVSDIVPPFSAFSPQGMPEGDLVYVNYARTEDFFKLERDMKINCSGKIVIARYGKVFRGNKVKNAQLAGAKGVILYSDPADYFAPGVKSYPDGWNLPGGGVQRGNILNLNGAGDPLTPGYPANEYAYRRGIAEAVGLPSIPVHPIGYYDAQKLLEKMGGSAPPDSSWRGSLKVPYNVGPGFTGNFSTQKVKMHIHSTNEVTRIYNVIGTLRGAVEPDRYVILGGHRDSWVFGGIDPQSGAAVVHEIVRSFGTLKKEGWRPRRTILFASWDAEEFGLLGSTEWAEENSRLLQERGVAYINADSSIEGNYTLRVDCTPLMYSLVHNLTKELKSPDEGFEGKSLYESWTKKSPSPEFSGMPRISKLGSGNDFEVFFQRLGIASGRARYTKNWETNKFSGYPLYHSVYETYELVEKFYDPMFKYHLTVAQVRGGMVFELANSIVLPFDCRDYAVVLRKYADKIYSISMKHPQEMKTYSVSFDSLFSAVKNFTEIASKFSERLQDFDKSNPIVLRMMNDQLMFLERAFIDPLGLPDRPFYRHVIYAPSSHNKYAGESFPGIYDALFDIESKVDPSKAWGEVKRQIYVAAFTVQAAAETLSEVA

Binder	EC50 (read off the curve) [nM]
B1	~3
B2	~3
B3	~4

target: T2, recombinant human PSMA (prostate-specific membrane antigen), biotin-tagged (human, UniProt Q04609 44-750, biotin tag (site not stated)); test: native ELISA, streptavidin-captured biotin-tagged PSMA, Fab titrated
T2 construct: also called biotin-tagged PSMA; biotin-labelled PSMA
Experimental: (§2) Native ELISA was used to measure affinity of 5D3-hFabs for human PSMA. Experiments were performed in 96-well MaxiSorp plates coated with streptavidin complexed with biotin-tagged PSMA. Purified 5D3-hFabs were applied in 2-fold dilution series in the concentration range of 2000 nM-0.95 pM and goat anti-human secondary antibody conjugated to horseradish peroxidase, together with the TMB substrate, was used for 5D3-hFabs detection. Data were processed using a Prism 6 software (GraphPad, San Diego, CA) and binding curves fitted using an embedded non-linear curve-fitting algorithm (FIG. 4, Table 1). Affinity of all variants tested was in a single-digit nanomolar range (1.8-2.7 nM) and virtually identical to the parent murine and chimeric Fabs, documenting successful humanization results.

T2 sequence (Q04609 44-750 limits assumed): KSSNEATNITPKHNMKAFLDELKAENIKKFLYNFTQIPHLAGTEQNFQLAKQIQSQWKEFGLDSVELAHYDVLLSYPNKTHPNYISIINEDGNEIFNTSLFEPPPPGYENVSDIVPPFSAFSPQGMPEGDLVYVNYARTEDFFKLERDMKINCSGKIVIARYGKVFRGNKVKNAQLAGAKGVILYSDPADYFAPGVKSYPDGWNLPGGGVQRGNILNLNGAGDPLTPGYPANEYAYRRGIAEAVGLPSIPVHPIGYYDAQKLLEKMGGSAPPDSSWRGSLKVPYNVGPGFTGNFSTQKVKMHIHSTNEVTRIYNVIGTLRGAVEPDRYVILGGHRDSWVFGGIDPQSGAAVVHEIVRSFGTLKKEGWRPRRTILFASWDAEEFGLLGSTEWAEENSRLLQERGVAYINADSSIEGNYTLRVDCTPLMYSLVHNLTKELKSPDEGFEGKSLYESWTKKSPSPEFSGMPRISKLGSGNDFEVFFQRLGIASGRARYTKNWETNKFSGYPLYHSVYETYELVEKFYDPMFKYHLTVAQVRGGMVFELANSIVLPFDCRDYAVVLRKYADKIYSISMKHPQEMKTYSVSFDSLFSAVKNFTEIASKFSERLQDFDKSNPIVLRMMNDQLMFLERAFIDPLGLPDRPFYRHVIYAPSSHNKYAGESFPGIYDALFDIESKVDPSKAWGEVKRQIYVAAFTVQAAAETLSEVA

Binder	Kd [nM]
B1	1.8
B2	2.7
B3	1.8

target: T2, recombinant human PSMA …; test: ELISA on plates coated with recombinant PSMA (biotin-tagged, captured on streptavidin), two-fold dilution series, goat anti-human-HRP and TMB
Experimental: FIG. 4—Affinity of Fab variants determined by ELISA. Plates coated with recombinant PSMA were probed with two-fold dilution series of individual fragments and binding visualized using goat anti-human secondary antibody conjugated to horseradish peroxidase together with the TMB substrate. Binding curves were fitted using a non-linear regression algorithm.
as §2

Binder	EC50 (read off the curve) [nM]
B1	~4
B2	~2
B3	~4

target: T1, human PSMA displayed on the surface of …; test: flow cytometry on LNCaP cells, Fab titrated
Experimental: as §1

Binder	Kd [nM]
B1	2.8
B2	3
B3	4.1
